Assay results from article PMC3705450.
Like-named read-outs stand apart in the source and are kept apart here.

Assays:
Experiment in all cases: EMSA
LuxR T52M/I24V [1] = biological target: T1, LuxR T52M/I24V (Vibrio harveyi, UniProt P21308 1-205, T52M;I24V)
T1 sequence: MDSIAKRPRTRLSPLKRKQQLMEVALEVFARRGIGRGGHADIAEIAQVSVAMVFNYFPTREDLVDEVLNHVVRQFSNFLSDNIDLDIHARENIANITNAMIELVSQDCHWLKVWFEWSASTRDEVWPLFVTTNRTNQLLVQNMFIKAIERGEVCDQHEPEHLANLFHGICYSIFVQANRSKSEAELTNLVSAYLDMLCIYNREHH

LuxR [2] = biological target: T2, LuxR (Vibrio harveyi, UniProt P21308 1-205)
T2 sequence: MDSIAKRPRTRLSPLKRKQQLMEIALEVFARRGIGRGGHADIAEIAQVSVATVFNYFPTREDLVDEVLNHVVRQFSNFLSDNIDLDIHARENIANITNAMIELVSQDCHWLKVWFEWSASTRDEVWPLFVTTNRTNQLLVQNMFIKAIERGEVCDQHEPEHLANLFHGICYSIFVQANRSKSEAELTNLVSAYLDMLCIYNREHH

LuxR T52M/I24V [3] = biological target: T1, LuxR T52M/I24V; remark: listed apart in the source
LuxR [4] = biological target: T2, LuxR; remark: listed apart in the source
LuxR [5] = biological target: T2, LuxR; remark: listed apart in the source
LuxR [6] = biological target: T2, LuxR; remark: listed apart in the source
LuxR N55I [7] = biological target: T3, LuxR N55I (Vibrio harveyi, UniProt P21308 1-205, N55I)
T3 sequence: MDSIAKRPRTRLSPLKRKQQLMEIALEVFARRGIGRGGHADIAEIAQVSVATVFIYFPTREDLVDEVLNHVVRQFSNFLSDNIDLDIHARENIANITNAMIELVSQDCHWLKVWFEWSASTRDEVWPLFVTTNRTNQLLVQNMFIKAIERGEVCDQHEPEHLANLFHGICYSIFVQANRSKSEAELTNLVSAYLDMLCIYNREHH

LuxR L139P = biological target: T4, LuxR L139P (Vibrio harveyi, UniProt P21308 1-205, L139P)
T4 sequence: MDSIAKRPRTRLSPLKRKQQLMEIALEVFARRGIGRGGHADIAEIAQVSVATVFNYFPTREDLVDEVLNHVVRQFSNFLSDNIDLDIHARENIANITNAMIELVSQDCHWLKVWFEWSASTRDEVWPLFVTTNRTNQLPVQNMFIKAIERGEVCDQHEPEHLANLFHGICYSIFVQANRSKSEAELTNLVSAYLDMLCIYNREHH

LuxR [8] = biological target: T2, LuxR; remark: listed apart in the source
LuxR N55I [9] = biological target: T3, LuxR N55I; remark: listed apart in the source

B1: P05222 site G to T + T to C (dsDNA)
DNA 1: GTGCAACAAAATATTGACTTTTTTGTCAGTAAGGATCCGGTGATTG
DNA 2: CAATCACCGGATCCTTACTGACAAAAAAGTCAATATTTTGTTGCAC
- binding result (LuxR T52M/I24V [1]): binds
- binding result (LuxR [2]): binds

B2: P05222 site 31mer (dsDNA)
DNA 1: CTAGTACTGACAAAAAAGTTAATATTTTGTT
DNA 2: AACAAAATATTAACTTTTTTGTCAGTACTAG
- Kd (LuxR T52M/I24V [3]): 56.6 nM
- Kd (LuxR [4]): 0.7 nM

B3: PluxC site 3 (dsDNA)
DNA 1: TTATTTAAATGATATAAATATAAATAACATCA
DNA 2: TGATGTTATTTATATTTATATCATTTAAATAA
- Kd (LuxR [4]): 0.6 nM

B4: P05222 28 bp (dsDNA)
DNA 1: CTAGTACTGACAAAAAAGTTAATATTTT
DNA 2: AAAATATTAACTTTTTTGTCAGTACTAG
- binding result (LuxR [5]): binds

B5: aphA promoter BS* randomized 31mer (dsDNA)
DNA 1: TTTACGTTACTTGTTGGTAAATTTTATATAT
DNA 2: ATATATAAAATTTACCAACAAGTAACGTAAA
- binding result (LuxR [6]): no binding

B6: PluxC site 2 (dsDNA)
DNA 1: ACTAATTATAAATAAATCAAACTATAATTAGA
DNA 2: TCTAATTATAGTTTGATTTATTTATAATTAGT
- binding result (LuxR N55I [7]): no binding
- Kd (LuxR [4]): 103 nM
- binding result (LuxR L139P): binds

B7: PluxC site 1 (dsDNA)
DNA 1: TTACTTATTTATAGTGTTACAAATAACATTA
DNA 2: TAATGTTATTTGTAACACTATAAATAAGTAA
- binding result (LuxR [8]): binds
- binding result (LuxR N55I [9]): binds
- binding result (LuxR T52M/I24V [3]): no binding
- binding result (LuxR L139P): binds
